In PMC10862077 (Frontiers in Immunology, 2024):

B1: A16L (VHH)
VHH: QVQLQESGGGVVQAGGSLRLSCAASGRTVSSSAMGWFRLAPGKEREFVVGISRSGGSIFYADSVKGRFTISRKNAKNTVDLQMNSLKPEDTAVYYCAAGYRPGYGDYGRVFYREDEYDDWGQGTQVTVSS
notes: also called sdAb A16
B2: A12L (VHH)
VHH: QVQLQESGGGLVQAGGSLRLSCAASGRTFSYYPMAWFRQAPGQEREFVAAIIGADTTYYADSLKGRFTISRDNAKNMVYLQMNSLKPEDTAVYYCAARNTYWSDVYYREGQYTNWGQGTQVTVSS
notes: also called sdAb A12
B3: A7L (VHH)
VHH: QVQLQQSGGGLVQAGDSLRLSCAASGRAFNYYTMGWFRQAPGKEREFVAKIYWDGGSTIYADSVKGRFTISIDNAKNTVYLQMNSLKPEDTAVYYCAADPSFYPFRPKYWGQGTQVTVSS
notes: also called sdAb A7
B4: A2L (VHH)
VHH: QVQLQQSGGGLVQAGGSLRLSCAASGRFFSRQVMGWFRQAPGKDREFVGVISWDNGVTFYSDSVKGRFTMSREIAKKTVHLQMNSLKPEDTAVYYCAAGNALHSRYYSPSKYDYWGPGTQVTVSS
notes: also called sdAb A2
B5: A6L (VHH)
VHH: QVQLQESGGRLVQAEDSLRLSCAASGRTFVSYDMGWFRQAPGKEREFVAAINWRGYTTDYVDSVKGRFFISRDIAKSTVYLQMNNLKPEDTAVYYCAARQMSGSSRYSPPGRVGYDFWGQGTQVTVSS
notes: also called sdAb A6

Columns and labels:
Details in all cases: both partners purified
horse albumin [1] = target: T1, horse albumin (Equus caballus, UniProt P35747)
T1 sequence (P35747 25-607): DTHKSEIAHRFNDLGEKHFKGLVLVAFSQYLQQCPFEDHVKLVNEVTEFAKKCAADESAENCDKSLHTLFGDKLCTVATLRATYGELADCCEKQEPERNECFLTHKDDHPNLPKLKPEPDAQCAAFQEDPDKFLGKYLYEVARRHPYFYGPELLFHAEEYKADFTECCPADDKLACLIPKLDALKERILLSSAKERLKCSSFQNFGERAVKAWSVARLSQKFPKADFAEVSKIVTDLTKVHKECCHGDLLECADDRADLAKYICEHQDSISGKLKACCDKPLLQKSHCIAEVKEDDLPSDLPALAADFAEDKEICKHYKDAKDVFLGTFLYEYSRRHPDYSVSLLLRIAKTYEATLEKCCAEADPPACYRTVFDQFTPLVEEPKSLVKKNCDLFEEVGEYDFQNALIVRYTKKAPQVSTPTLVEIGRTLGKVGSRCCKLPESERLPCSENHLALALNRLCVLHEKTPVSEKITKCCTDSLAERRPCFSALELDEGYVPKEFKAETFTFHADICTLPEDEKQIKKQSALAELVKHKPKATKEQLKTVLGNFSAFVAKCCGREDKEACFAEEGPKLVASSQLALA

cat albumin [2] = target: T2, cat albumin (Felis catus, UniProt P49064)
T2 sequence (P49064 25-608): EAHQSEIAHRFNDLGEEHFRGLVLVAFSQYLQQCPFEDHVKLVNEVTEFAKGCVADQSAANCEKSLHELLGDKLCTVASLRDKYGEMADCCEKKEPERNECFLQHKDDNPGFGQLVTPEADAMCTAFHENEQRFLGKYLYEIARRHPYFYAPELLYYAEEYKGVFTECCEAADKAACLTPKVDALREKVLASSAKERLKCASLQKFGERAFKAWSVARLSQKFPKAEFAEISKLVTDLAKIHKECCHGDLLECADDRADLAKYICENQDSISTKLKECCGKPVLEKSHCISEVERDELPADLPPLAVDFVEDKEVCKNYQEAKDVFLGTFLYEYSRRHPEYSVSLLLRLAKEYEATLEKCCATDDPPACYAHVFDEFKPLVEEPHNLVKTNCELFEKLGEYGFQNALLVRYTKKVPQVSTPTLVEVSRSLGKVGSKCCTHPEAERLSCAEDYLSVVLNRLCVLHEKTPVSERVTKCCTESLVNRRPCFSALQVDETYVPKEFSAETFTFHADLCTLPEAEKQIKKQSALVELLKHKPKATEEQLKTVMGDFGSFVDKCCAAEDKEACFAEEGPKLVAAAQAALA

[3] = target: T3, natural protein of Sus scrofa P08835 (Sus scrofa, UniProt P08835)
T3 construct: also called Sw
T3 sequence (P08835 25-607, one chain of several): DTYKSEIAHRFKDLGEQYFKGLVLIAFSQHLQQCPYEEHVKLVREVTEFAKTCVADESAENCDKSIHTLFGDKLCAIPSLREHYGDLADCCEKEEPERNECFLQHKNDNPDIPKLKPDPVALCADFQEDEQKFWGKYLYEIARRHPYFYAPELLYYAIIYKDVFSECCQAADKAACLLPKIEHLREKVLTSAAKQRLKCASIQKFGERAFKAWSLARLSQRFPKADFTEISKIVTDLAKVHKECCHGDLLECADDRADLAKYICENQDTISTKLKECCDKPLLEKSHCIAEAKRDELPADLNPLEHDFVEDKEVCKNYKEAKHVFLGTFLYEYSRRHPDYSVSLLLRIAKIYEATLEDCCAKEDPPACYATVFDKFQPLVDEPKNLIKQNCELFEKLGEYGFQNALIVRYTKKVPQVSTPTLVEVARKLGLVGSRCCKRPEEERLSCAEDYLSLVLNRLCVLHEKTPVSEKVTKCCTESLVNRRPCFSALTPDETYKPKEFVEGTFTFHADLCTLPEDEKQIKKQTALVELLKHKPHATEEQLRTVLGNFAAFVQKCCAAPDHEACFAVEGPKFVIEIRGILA

cat albumin [4] = target: T2, cat albumin; assay: ELISA; […], pH 7.4); room temperature; […]
[5] = target: T3, natural protein of Sus scrofa P08835; assay: ELISA; […], pH 7.4); room temperature; […]
horse albumin [6] = target: T1, horse albumin; assay: ELISA; […], pH 7.4); room temperature; […]
bovine albumin = bovine albumin (Bos taurus, UniProt P02769); assay: ELISA; […], pH 7.4); room temperature; […]
bovine albumin, sequence (P02769 25-607): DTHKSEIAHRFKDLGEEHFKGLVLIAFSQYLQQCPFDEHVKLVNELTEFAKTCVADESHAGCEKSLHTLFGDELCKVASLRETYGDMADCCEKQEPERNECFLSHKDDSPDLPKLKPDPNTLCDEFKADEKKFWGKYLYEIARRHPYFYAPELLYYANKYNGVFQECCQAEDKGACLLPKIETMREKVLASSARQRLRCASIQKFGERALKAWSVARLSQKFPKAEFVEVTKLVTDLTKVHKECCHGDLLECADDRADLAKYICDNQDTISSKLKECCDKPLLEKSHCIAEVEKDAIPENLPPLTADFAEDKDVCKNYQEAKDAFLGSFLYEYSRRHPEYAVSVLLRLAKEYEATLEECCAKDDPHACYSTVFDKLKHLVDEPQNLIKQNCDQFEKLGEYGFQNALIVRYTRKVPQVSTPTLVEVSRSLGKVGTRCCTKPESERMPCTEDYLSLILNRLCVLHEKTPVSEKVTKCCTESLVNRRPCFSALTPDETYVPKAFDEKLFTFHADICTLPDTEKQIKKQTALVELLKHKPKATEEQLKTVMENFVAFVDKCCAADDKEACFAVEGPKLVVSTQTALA

chicken ovalbumin = chicken ovalbumin (Gallus gallus, UniProt P01012); assay: ELISA; […], pH 7.4); room temperature; […]
chicken ovalbumin, sequence (P01012 whole entry): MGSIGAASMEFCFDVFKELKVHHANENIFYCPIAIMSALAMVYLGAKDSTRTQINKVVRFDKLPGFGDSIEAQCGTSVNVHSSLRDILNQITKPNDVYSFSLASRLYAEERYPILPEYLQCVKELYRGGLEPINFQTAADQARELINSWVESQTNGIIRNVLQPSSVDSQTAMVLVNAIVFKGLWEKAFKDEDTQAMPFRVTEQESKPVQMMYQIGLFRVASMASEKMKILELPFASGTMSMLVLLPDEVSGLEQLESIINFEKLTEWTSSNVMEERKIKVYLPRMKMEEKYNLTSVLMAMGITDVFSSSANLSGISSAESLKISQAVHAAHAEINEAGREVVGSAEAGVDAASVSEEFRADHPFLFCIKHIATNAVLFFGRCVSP

human albumin = target: T4, human albumin (Homo sapiens, UniProt P02768); assay: ELISA; […], pH 7.4); room temperature; […]
T4 construct: also called HSA
T4 sequence (P02768 25-609): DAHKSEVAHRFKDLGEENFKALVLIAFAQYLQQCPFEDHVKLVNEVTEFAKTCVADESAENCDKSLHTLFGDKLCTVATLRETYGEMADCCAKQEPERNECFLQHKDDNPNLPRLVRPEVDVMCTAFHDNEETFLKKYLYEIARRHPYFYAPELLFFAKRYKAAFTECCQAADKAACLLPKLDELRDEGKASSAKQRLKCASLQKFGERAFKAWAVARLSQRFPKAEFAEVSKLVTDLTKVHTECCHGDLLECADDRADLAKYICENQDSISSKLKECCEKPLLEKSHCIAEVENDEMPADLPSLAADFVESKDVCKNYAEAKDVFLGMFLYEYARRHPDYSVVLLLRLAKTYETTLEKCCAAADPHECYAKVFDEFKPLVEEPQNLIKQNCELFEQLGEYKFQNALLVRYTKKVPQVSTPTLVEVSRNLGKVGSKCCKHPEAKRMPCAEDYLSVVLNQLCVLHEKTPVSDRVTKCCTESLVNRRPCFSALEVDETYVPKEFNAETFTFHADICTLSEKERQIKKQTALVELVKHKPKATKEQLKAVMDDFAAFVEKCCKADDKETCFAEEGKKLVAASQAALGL

sheep albumin = sheep albumin (Ovis aries, UniProt P14639); assay: ELISA; […], pH 7.4); room temperature; […]
sheep albumin, sequence (P14639 25-607): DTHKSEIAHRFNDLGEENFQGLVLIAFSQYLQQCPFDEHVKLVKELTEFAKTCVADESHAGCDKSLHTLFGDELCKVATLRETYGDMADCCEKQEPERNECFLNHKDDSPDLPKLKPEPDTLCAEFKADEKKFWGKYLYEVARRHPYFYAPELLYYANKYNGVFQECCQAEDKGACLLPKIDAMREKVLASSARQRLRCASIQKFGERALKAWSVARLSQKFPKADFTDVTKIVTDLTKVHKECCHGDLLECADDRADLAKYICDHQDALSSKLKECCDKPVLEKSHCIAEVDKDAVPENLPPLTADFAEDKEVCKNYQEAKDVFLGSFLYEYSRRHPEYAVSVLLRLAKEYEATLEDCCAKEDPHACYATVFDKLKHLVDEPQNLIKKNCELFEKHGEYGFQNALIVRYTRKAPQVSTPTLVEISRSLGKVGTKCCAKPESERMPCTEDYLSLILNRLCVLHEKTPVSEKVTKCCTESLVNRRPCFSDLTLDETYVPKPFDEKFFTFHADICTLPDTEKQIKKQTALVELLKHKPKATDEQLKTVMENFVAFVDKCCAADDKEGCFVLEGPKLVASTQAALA

mouse albumin = mouse albumin (Mus musculus, UniProt P07724); assay: ELISA; […], pH 7.4); room temperature; […]
mouse albumin, sequence (P07724 25-608): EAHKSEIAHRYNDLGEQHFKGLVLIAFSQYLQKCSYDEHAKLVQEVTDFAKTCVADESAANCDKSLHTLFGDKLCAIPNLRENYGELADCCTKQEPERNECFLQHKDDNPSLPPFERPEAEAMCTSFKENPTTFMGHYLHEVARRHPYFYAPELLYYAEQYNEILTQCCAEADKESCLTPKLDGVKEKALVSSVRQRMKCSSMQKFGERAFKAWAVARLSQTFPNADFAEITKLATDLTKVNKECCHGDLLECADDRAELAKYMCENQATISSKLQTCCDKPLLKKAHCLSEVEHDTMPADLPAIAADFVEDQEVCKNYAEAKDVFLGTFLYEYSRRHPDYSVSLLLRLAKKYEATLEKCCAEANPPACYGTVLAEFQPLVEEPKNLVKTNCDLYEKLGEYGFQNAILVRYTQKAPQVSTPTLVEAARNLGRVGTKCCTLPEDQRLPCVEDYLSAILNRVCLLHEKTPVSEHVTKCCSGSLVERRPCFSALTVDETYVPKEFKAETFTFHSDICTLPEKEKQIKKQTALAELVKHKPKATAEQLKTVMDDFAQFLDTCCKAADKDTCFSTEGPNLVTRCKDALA

Binder | Kd (horse albumin [1]) [nM] | koff (horse albumin [1]) [s⁻¹] | Kd (cat albumin [2]) [nM] | koff (cat albumin [2]) [s⁻¹] | binding result (horse albumin [6]) | also measured
B1 | 11 | 0.00242 | – | – | – | –
B2 | 13 | 0.00115 | 31 | 0.00082 | – | Kd [3]: 189 nM; koff [3]: 0.0249 s⁻¹
B3 | – | – | – | – | binds | binding result (cat albumin [4]): no binding (tested: 1 µg/ml sdAb); binding result [5]: no binding (tested: 1 µg/ml sdAb); binding result (bovine albumin): no binding (tested: 1 µg/ml sdAb); binding result (chicken ovalbumin): no binding (tested: 1 µg/ml sdAb); binding result (human albumin): no binding (tested: 1 µg/ml sdAb); binding result (sheep albumin): no binding (tested: 1 µg/ml sdAb); binding result (mouse albumin): no binding (tested: 1 µg/ml sdAb)
B4 | – | – | – | – | binds | –
B5 | 13 | 0.00966 | 1.2 | 0.00087 | – | –
